Measurements as given in PMC2193777.

Target: strepAID (human, UniProt Q9GZX7 1-198)
Experiment: EMSA

Chain of strepAID (Q9GZX7 whole entry): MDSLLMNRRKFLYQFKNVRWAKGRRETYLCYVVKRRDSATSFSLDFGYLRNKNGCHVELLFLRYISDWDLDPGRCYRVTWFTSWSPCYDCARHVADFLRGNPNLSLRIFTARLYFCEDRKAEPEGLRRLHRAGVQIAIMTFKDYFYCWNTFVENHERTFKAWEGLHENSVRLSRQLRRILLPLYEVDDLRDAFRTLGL

Binder	binding result
AUCGGAAUGUAUGAGAAUAGAAGAGAUAAUGAAUAAUAGAA (ssRNA) [ssRNA]	binds
ATCGGAATGTATGAGAATAGAAGAGATAATGAATAATAGAA (ssDNA) [ssDNA (TCGend)]	binds
